One substance from patent US20230125561A1 can be followed below.

This experiment concerns the target SARS-CoV-2 Spike S1 protein, B.1.1.7 (UK (Kent)) variant (SARS-CoV-2) (UniProt P0DTC2). As to the kind of experiment: ELISA. Particulars: designed binder.

“Neumifil (HEX17: trimeric (hexavalent) form based on S. pneumoniae CBM40)” yielded a concentration giving a half-maximal response (EC50) of 0.137 µg/mL.
